According to PMC10936776, “Structural and functional characterization of AfsR, an SARP family transcriptional activator of antibiotic biosynthesis in Streptomyces” (PLOS Biology, 2024):
Blank lines part the entries; values can stand above or below the binder they belong to.

Experiments:
[1] = target: T1, Streptomyces coelicolor RNA polymerase sigma factor σ^HrdB (S. coelicolor, UniProt P18183 1-511); test: cryo-EM structure; SARP-TIC: 32 uM SARP preincubated with 5 uM afsS promoter DNA scaffold, mixed with 4 uM RNAP core, 16 uM σ^HrdB, 16 uM CarD, 32 uM RbpA; 25°C; 20 mM Tris-HCl pH 8.0, 50 mM KCl, 5 mM MgCl2, 3 mM DTT; Superose 6; nominal resolution 3.35 Å, SARP region 3.77 Å; details: both partners purified
T1 construct: principal sigma factor HrdB, S. coelicolor; region 1.1 disordered in the map; Stood in the assay as part of the RNAP σ^HrdB-holoenzyme; also called σ subunit; σ R4 (region 4); source: purified as described previously [37]
T1 sequence: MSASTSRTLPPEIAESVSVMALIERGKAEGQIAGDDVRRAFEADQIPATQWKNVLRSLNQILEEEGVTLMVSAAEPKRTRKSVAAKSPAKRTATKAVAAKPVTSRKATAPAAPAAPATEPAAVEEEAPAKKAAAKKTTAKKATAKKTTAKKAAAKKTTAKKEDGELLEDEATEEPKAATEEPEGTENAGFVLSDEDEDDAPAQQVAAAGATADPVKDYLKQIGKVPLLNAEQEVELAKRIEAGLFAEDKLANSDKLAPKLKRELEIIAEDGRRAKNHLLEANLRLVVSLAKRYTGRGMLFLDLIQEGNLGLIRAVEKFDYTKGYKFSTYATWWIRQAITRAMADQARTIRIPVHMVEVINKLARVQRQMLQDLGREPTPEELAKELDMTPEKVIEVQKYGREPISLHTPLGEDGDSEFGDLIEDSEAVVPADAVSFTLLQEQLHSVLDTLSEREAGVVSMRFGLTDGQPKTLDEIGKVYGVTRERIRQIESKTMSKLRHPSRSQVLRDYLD

[2] = target: T2, Streptomyces coelicolor RNA polymerase β subunit (S. coelicolor, UniProt Q9L0L0 1-1161); test: as above; details: both partners purified
T2 construct: RNA polymerase subunit beta, S. coelicolor; Stood in the assay as a subunit of the RNAP core in the holoenzyme; also called RNAP β; β flap; source: S. coelicolor RNAP purified as described previously [37]

[3] = target: T3, Streptomyces coelicolor RNA polymerase α subunit (S. coelicolor, UniProt P60312 1-340); test: as above; details: both partners purified
T3 construct: RNA polymerase subunit alpha, S. coelicolor; Stood in the assay as a subunit of the RNAP core in the holoenzyme; density for one αCTD is seen; also called αCTD (C-terminal domain of the α subunit); source: S. coelicolor RNAP purified as described previously [37]
T3 sequence: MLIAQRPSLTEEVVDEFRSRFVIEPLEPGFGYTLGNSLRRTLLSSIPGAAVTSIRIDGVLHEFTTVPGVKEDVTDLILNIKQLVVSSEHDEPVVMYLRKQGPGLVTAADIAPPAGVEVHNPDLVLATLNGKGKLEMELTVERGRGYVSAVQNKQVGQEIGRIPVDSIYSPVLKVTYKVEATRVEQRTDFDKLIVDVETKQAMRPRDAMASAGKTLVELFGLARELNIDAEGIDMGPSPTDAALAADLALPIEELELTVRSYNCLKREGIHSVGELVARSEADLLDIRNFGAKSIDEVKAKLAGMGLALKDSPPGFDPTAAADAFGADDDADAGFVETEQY

[4] = target: T4, Streptomyces coelicolor RNA polymerase β′ subunit (S. coelicolor, UniProt Q8CJT1 1-1299); test: as above; details: both partners purified
T4 construct: RNA polymerase subunit beta', S. coelicolor; Stood in the assay as a subunit of the RNAP core in the holoenzyme; also called RNAP β′; β′ ZBD; source: S. coelicolor RNAP purified as described previously [37]

[5] = target: SARP domain of Streptomyces coelicolor AfsR (residues 1 to 270) (S. coelicolor) (UniProt P25941); test: as above
[6] = target: AfsR SARP domain;RNAP-sigmaHrdB holoenzyme;RbpA;CarD (Streptomyces coelicolor …, UniProt P25941;P60312;Q9L0L0;Q8CJT1;P18183;Q9KXS1;Q9RKY0;Q9L0Q9 …, |||); test: cryo-EM; 3.35 A; open complex, 13-nt bubble; FP: 20 mM HEPES pH 7.5, 100 mM NaCl, 5 mM MgCl2, 2 mM DTT, 5% glycerol, 0.1 ug/ml poly(dI-dC), 10 nM DNA, 30 C, 20 min; details: protein: recombinant;;recombinant;recombinant; tags: pET28a His tag (Ni-NTA);;pET28a His tag (Ni-NTA);pET28a His tag (Ni-NTA); chain copies: 2;2;1;1;1;1;1;1; 44 bp duplex, 6-nt mismatched bubble (-6 to -1), 15 bp duplex
AfsR SARP domain = target: T5, AfsR SARP domain (Streptomyces coelicolor M145, UniProt P25941 1-270); test: fluorescence polarization; 5 mM Mg2+; poly(dI-dC); FP: 20 mM HEPES pH 7.5, 100 mM NaCl, 5 mM MgCl2, 2 mM DTT, 5% glycerol, 0.1 ug/ml poly(dI-dC), 10 nM DNA, 30 C, 20 min; details: protein: recombinant; tags: pET28a His tag (Ni-NTA); chain copies: 2; label: 5'-FAM; blunt
T5 sequence: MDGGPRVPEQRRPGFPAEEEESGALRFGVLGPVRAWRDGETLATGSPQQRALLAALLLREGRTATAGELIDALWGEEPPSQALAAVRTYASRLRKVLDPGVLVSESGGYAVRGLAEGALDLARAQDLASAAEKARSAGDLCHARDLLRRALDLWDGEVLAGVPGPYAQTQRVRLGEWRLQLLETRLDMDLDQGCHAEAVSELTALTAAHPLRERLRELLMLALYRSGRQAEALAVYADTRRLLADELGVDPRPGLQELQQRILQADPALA

AfsR, dephosphorylated = target: T6, AfsR, dephosphorylated (Streptomyces coelicolor M145, UniProt P25941 1-993); test: fluorescence polarization; preincubated with ATP; DNA binding unchanged; FP: 20 mM HEPES pH 7.5, 100 mM NaCl, 5 mM MgCl2, 2 mM DTT, 5% glycerol, 0.1 ug/ml poly(dI-dC), 10 nM DNA, 30 C, 20 min; details: protein: recombinant; tags: pET28a His tag (Ni-NTA); chain copies: 2; label: 5'-FAM; blunt
T6 sequence: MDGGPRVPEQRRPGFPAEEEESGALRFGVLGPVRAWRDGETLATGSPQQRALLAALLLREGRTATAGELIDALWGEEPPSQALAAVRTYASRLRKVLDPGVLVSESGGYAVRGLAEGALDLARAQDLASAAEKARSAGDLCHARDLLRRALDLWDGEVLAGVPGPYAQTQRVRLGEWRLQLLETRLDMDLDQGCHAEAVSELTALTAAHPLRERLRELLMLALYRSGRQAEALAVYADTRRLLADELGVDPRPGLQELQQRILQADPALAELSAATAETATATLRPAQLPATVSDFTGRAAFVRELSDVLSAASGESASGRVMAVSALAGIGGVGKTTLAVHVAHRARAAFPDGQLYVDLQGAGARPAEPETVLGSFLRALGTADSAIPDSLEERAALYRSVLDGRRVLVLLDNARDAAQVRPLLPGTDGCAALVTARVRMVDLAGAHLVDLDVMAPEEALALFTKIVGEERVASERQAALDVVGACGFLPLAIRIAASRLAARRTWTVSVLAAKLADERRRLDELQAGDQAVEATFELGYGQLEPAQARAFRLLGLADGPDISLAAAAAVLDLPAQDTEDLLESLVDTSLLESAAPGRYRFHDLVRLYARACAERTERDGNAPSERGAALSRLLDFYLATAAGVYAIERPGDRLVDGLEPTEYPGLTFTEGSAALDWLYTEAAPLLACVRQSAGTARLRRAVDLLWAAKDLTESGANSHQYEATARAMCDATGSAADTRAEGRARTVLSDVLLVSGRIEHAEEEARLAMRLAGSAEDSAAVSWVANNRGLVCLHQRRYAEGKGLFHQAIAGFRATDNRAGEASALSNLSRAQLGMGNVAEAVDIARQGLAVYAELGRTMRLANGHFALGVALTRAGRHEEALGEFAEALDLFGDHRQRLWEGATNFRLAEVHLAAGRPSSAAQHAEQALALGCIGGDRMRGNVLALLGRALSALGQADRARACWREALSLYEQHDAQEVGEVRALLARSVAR

AfsR 4E = target: T7, AfsR 4E (Streptomyces coelicolor M145, UniProt P25941 1-993, S391E;T337E;T506E;S953E); test: fluorescence polarization; stronger than dephosphorylated AfsR; FP: 20 mM HEPES pH 7.5, 100 mM NaCl, 5 mM MgCl2, 2 mM DTT, 5% glycerol, 0.1 ug/ml poly(dI-dC), 10 nM DNA, 30 C, 20 min; details: protein: recombinant; tags: pET28a His tag (Ni-NTA); chain copies: 2; label: 5'-FAM; blunt
T7 sequence: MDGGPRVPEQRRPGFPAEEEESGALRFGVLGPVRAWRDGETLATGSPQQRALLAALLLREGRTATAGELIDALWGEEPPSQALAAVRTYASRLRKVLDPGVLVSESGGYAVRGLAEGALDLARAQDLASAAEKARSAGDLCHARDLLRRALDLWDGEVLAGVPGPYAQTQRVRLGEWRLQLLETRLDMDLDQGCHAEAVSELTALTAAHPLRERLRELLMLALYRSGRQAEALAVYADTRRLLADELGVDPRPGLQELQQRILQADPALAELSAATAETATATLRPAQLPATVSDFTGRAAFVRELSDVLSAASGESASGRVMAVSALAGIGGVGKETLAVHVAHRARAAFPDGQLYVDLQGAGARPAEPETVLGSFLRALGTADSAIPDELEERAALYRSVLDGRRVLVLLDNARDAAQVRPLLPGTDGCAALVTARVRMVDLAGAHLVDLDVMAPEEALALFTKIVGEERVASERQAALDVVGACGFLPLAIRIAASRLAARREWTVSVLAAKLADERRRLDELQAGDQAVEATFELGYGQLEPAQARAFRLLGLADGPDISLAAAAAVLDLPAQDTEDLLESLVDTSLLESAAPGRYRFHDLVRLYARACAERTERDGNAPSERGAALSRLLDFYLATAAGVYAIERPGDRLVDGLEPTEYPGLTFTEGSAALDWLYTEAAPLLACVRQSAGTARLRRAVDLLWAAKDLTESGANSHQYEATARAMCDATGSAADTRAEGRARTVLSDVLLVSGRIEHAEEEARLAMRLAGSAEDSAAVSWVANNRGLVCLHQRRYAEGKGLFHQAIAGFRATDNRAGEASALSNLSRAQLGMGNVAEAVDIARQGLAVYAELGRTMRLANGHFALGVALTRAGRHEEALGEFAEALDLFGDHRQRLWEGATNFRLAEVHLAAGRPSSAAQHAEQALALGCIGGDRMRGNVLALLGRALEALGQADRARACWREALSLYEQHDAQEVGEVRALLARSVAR

binding result [1]: binds
binding result [2]: binds
binding result [3]: binds
binding result [4]: binds
stoichiometry N [5]: 2
B1: SARP domain of Streptomyces coelicolor AfsR (residues 1 to 270) (domain or fragment, S. coelicolor, UniProt P25941 1-270, looked up)
chain: MDGGPRVPEQRRPGFPAEEEESGALRFGVLGPVRAWRDGETLATGSPQQRALLAALLLREGRTATAGELIDALWGEEPPSQALAAVRTYASRLRKVLDPGVLVSESGGYAVRGLAEGALDLARAQDLASAAEKARSAGDLCHARDLLRRALDLWDGEVLAGVPGPYAQTQRVRLGEWRLQLLETRLDMDLDQGCHAEAVSELTALTAAHPLRERLRELLMLALYRSGRQAEALAVYADTRRLLADELGVDPRPGLQELQQRILQADPALA
notes: AfsR, S. coelicolor M145, SARP domain, residues 1 to 270 (Met1-Ala270); Two protomers (upstream and downstream) stand on the afs box DNA in SARP-TIC; also called isolated SARP domain; wild-type SARP; source: E. coli BL21(DE3), purified (nickel-NTA, SEC Superdex 200)

B2: afsS promoter scaffold -50 to +15, 6-nt bubble (dsDNA)
DNA 1: GTAGCCGGAGCGTTCAGCGTTCGTTTATCTCCCCCTGGCACTGTCATCTCCGTCAGACCGTCGCA
DNA 2: TGCGACGGTCTGACGCTCTACACAGTGCCAGGGGGAGATAAACGAACGCTGAACGCTCCGGCTAC
binding result [6]: binds

B3: afs box (-45 to -14) (dsDNA)
DNA 1: CGGAGCGTTCAGCGTTCGTTTATCTCCCCCTG
DNA 2: CAGGGGGAGATAAACGAACGCTGAACGCTCCG
binding result (AfsR SARP domain): binds
binding result (AfsR, dephosphorylated): binds
binding result (AfsR 4E): binds
